For this assay, the target named is Pseudo-nitzschia multiseries ferritin (Pseudo-nitzschia multiseries). Briefly: crystal structure; crystals of PmFTN grown by vapor diffusion (0.1 M sodium acetate pH 5.5, ammonium sulfate, NaCl), aerobic or anaerobic, soaked in 2 mM Fe(II) or 2 mM zinc sulfate; 24-mer shell built from 8 (P23) or 6 (P42(1)2) subunits in the asymmetric unit.

In turn, “Pseudo-nitzschia multiseries ferritin (natural protein)” gave a stoichiometry N of 24 subunits.

The values are drawn from paper PMC3663513.
